Test results: paper PMC5624731 (2018)

Tests used:
Experiment in all cases: nESI-MS
PCBP1 = PCBP1 (Homo sapiens, UniProt Q15365)
PCBP1 (apo) = PCBP1 (apo) (Homo sapiens, UniProt Q15365)
Ferredoxin = Ferredoxin (Spinacia oleracea, UniProt P00221)
Chain of Ferredoxin (P00221 51-147): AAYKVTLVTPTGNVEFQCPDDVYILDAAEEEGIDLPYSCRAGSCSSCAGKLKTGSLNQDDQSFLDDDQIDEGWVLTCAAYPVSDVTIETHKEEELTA

Chain of PCBP1 (Q15365 whole entry): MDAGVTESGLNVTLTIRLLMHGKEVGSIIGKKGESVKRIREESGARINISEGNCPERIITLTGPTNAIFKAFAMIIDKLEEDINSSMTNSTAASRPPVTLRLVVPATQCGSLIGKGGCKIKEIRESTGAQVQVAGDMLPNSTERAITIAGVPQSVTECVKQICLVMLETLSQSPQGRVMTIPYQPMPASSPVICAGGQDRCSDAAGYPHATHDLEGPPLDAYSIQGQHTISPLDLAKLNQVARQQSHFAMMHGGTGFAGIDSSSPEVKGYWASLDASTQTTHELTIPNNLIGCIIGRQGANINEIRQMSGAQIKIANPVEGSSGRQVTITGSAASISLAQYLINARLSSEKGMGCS
Chain of PCBP1 (apo) (Q15365 whole entry): as above

Binder | Kd (PCBP1) [µM] | other results
HDAC8 (Zn) (protein, Zn2+-bound HDAC8) MEEPEEPADSGQSLVPVYIYSPEYVSMCDSLAKIPKRASMVHSLIEAYALHKQMRIVKPKVASMEEMATFHTDAYLQHLQKVSQEGDDDHPDSIEYGLGYDCPATEGIFDYAAAIGGATITAAQCLIDGMCKVAINWSGGWHHAKKDEASGFCYLNDAVLGILRLRRKFERILYVDLDLHHGDGVEDAFSFTSKVMTVSLHKFSPGFFPGTGDVSDVGLGKGRYYSVNVPIQDGIQDEKYYQICESVLKEVYQAFNPKAVVLQLGADTIAGDPMCSFNMTPVGIGKCLKYILQWQLATLILGGGGYNLANTARCWTYLTGVILGKTLSSEIPDHEFFTAYGPDYVLEITPSCRPDRNEPHRIQQILNYIKGNLKHVV | 60 | 
HDAC8 (apo) (protein) MEEPEEPADSGQSLVPVYIYSPEYVSMCDSLAKIPKRASMVHSLIEAYALHKQMRIVKPKVASMEEMATFHTDAYLQHLQKVSQEGDDDHPDSIEYGLGYDCPATEGIFDYAAAIGGATITAAQCLIDGMCKVAINWSGGWHHAKKDEASGFCYLNDAVLGILRLRRKFERILYVDLDLHHGDGVEDAFSFTSKVMTVSLHKFSPGFFPGTGDVSDVGLGKGRYYSVNVPIQDGIQDEKYYQICESVLKEVYQAFNPKAVVLQLGADTIAGDPMCSFNMTPVGIGKCLKYILQWQLATLILGGGGYNLANTARCWTYLTGVILGKTLSSEIPDHEFFTAYGPDYVLEITPSCRPDRNEPHRIQQILNYIKGNLKHVV |  | Kd (PCBP1 (apo)): 68 µM
HDAC8 (Fe) (protein, Fe2+-bound HDAC8) MEEPEEPADSGQSLVPVYIYSPEYVSMCDSLAKIPKRASMVHSLIEAYALHKQMRIVKPKVASMEEMATFHTDAYLQHLQKVSQEGDDDHPDSIEYGLGYDCPATEGIFDYAAAIGGATITAAQCLIDGMCKVAINWSGGWHHAKKDEASGFCYLNDAVLGILRLRRKFERILYVDLDLHHGDGVEDAFSFTSKVMTVSLHKFSPGFFPGTGDVSDVGLGKGRYYSVNVPIQDGIQDEKYYQICESVLKEVYQAFNPKAVVLQLGADTIAGDPMCSFNMTPVGIGKCLKYILQWQLATLILGGGGYNLANTARCWTYLTGVILGKTLSSEIPDHEFFTAYGPDYVLEITPSCRPDRNEPHRIQQILNYIKGNLKHVV | 44 | 
HDAC8 (protein) MEEPEEPADSGQSLVPVYIYSPEYVSMCDSLAKIPKRASMVHSLIEAYALHKQMRIVKPKVASMEEMATFHTDAYLQHLQKVSQEGDDDHPDSIEYGLGYDCPATEGIFDYAAAIGGATITAAQCLIDGMCKVAINWSGGWHHAKKDEASGFCYLNDAVLGILRLRRKFERILYVDLDLHHGDGVEDAFSFTSKVMTVSLHKFSPGFFPGTGDVSDVGLGKGRYYSVNVPIQDGIQDEKYYQICESVLKEVYQAFNPKAVVLQLGADTIAGDPMCSFNMTPVGIGKCLKYILQWQLATLILGGGGYNLANTARCWTYLTGVILGKTLSSEIPDHEFFTAYGPDYVLEITPSCRPDRNEPHRIQQILNYIKGNLKHVV | 63 | 
Ferredoxin-NADP+ reductase (protein) QIASDVEAPPPAPAKVEKHSKKMEEGITVNKFKPKTPYVGRCLLNTKITGDDAPGETWHMVFSHEGEIPYREGQSVGVIPDGEDKNGKPHKLRLYSIASSALGDFGDAKSVSLCVKRLIYTNDAGETIKGVCSNFLCDLKPGAEVKLTGPVGKEMLMPKDPNATIIMLGTGTGIAPFRSFLWKMFFEKHDDYKFNGLAWLFLGVPTSSSLLYKEEFEKMKEKAPDNFRLDFAVSREQTNEKGEKMYIQTRMAQYAVELWEMLKKDNTYFYMCGLKGMEKGIDDIMVSLAAAEGIDWIEYKRQLKKAEQWNVEVY |  | Kd (Ferredoxin): 16 µM
